The results in this text go back to patent US20060121032A1 (published 2006).

The test addresses extracellular region of human V158 FcγRIIIa with C-terminal 6×His-tag and GST-tag (human, UniProt P08637 17-208). The experiment in a line: SPR. Background: Surface plasmon resonance follows binding to a sensor surface in real time, without labels.

Chain of extracellular region of human V158 FcγRIIIa with C-terminal 6×His-tag and GST-tag (P08637 17-208 F176V): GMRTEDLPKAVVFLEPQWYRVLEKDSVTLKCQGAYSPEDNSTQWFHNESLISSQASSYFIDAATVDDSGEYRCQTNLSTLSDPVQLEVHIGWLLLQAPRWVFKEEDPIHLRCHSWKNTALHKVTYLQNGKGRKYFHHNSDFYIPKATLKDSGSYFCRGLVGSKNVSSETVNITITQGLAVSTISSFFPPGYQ

B1: alemtuzumab E283H (antibody)
chain 1: not shown
chain 2: not shown
For the molecule B1, the “Fold WT” value came to 2.31 fold.

B2: alemtuzumab H268D (antibody)
chain 1: not shown
chain 2: not shown
In the case of B2, the “Fold WT” value turned out to be 5.66 fold.

B3: alemtuzumab V284E (antibody)
chain 1: not shown
chain 2: not shown
With B3, the “Fold WT” value came out at 1.51 fold.

B4: alemtuzumab E258H (antibody)
chain 1: not shown
chain 2: not shown
For the molecule B4, the “Fold WT” value worked out at 5.5 fold.

B5: alemtuzumab E272H (antibody)
chain 1: not shown
chain 2: not shown
B5: the “Fold WT” value came out at 384 fold.

B6: alemtuzumab G236S (antibody)
chain 1: not shown
chain 2: not shown
Regarding B6, the “Fold WT” value is 6.69 fold.

B7: alemtuzumab E272P (antibody)
chain 1: not shown
chain 2: not shown
Turning to B7, the “Fold WT” value was 1.41 fold.

B8: alemtuzumab E258Y (antibody)
chain 1: not shown
chain 2: not shown
Consider B8, for which the “Fold WT” value stood at 1.77 fold.

B9: alemtuzumab S304T (antibody)
chain 1: not shown
chain 2: not shown
On to B9, for which the “Fold WT” value was 12.8 fold.

B10: alemtuzumab R255Y (antibody)
chain 1: not shown
chain 2: not shown
In the case of B10, the “Fold WT” value was 1.41 fold.

B11: alemtuzumab S267E (antibody)
chain 1: not shown
chain 2: not shown
With B11, the “Fold WT” value was determined as 2.62 fold.

B12: alemtuzumab E283L (antibody)
chain 1: not shown
chain 2: not shown
Turning to B12, the “Fold WT” value stood at 2.56 fold.

B13: alemtuzumab K246Y (antibody)
chain 1: not shown
chain 2: not shown
For B13, the “Fold WT” value came out at 7.07 fold.

B14: alemtuzumab S324G (antibody)
chain 1: not shown
chain 2: not shown
Turning to B14, the “Fold WT” value came out at 14.2 fold.

B15: alemtuzumab K246H (antibody)
chain 1: not shown
chain 2: not shown
On to B15, for which the “Fold WT” value was found to be 22.4 fold.
